Read-outs that look alike come from different tables or passages of the source.

First the molecules themselves.
B4: human IL-12p40, the p40 subunit of IL-23 (natural protein, UniProt P29460 23-328, looked up)
chain: IWELKKDVYVVELDWYPDAPGEMVVLTCDTPEEDGITWTLDQSSEVLGSGKTLTIQVKEFGDAGQYTCHKGGEVLSHSLLLLHKKEDGIWSTDILKDQKEPKNKTFLRCEAKNYSGRFTCWWLTTISTDLTFSVKSSRGSSDPQGVTCGAATLSAERVRGDNKEYEYSVECQEDSACPAAEESLPIEVMVDAVHKLKYENYTSSFFIRDIIKPDPPKNLQLKPLKNSRQVEVSWEYPDTWSTPHSYFSLTFCVQVQGKSKREKKDRVFTDKTSATVICRKNASISVRAQDRYYSSSWSEWASVPCS

For experiment [1], the target named is T1, human IL-23 receptor ectodomain (IL-23R, full ECD, residues 1-317) (human, UniProt Q5VWK5-1 24-317).
T1 sequence (looked up): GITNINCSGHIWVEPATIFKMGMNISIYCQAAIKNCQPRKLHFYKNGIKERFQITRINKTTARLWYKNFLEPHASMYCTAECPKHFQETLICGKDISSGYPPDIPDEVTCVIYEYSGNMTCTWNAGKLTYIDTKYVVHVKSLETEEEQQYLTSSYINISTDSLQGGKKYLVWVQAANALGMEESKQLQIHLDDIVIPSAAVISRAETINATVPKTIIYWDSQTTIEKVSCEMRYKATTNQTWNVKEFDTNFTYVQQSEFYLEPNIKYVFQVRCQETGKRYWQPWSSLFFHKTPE
Kind of experiment: SEC-MALLS.

Experiment [2] deals with T2, human IL-12 receptor subunit beta-1 ectodomain (IL-12Rβ1, full ECD) (human, UniProt P42701-1 24-544). The experiment can be described thus: ITC.
Experiment [3] addresses B4. The experiment can be described thus: crystal structure.
Experiment [4] deals with T1, human IL-23 receptor ectodomain …. The experiment can be described thus: crystal structure.
The target in experiment [5] is T2, human IL-12 receptor subunit beta-1 …. Kind of experiment: cross-linking.
The target in experiment [6] is T3, human interleukin-23 (IL-23), heterodimer of IL-23p19 and IL-12p40 (human, UniProt Q9NPF7;P29460). The experiment can be described thus: cross-linking.
In experiment [7] the target is T3, human interleukin-23 (IL-23), …. Kind of experiment: crystal structure.
Experiment [8] has as its target T4, human IL-12p40, the p40 subunit of IL-23 (human, UniProt P29460). Kind of experiment: crystal structure.
Experiment [9] deals with T3, human interleukin-23 (IL-23), …. Kind of experiment: crystal structure. The source holds these as a separate data set.
Experiment [10] has as its target T4, human IL-12p40, the p40 subunit of IL-23. The experiment can be described thus: crystal structure. This is another data set of the same source.

B1: human interleukin-23 (IL-23), heterodimer of IL-23p19 and IL-12p40 (complex)
chain 1: RAVPGGSSPAWTQCQQLSQKLCTLAWSAHPLVGHMDLREEGDEETTNDVPHIQCGDGCDPQGLRDNSQFCLQRIHQGLIFYEKLLGSDIFTGEPSLLPDSPVGQLHASLLGLSQLLQPEGHHWETQQIPSLSPSQPWQRLLLRFKILRSLQAFVAVAARVFAHGAATLSP
chain 2: IWELKKDVYVVELDWYPDAPGEMVVLTCDTPEEDGITWTLDQSSEVLGSGKTLTIQVKEFGDAGQYTCHKGGEVLSHSLLLLHKKEDGIWSTDILKDQKEPKNKTFLRCEAKNYSGRFTCWWLTTISTDLTFSVKSSRGSSDPQGVTCGAATLSAERVRGDNKEYEYSVECQEDSACPAAEESLPIEVMVDAVHKLKYENYTSSFFIRDIIKPDPPKNLQLKPLKNSRQVEVSWEYPDTWSTPHSYFSLTFCVQVQGKSKREKKDRVFTDKTSATVICRKNASISVRAQDRYYSSSWSEWASVPCS
For the molecule B1, the “stoichiometry N” value in experiment [1] is 1. Besides, in experiment [2], the Kd stood at 2000 nM.

B2: preformed human IL-23:IL-23R binary complex (complex)
chain 1: RAVPGGSSPAWTQCQQLSQKLCTLAWSAHPLVGHMDLREEGDEETTNDVPHIQCGDGCDPQGLRDNSQFCLQRIHQGLIFYEKLLGSDIFTGEPSLLPDSPVGQLHASLLGLSQLLQPEGHHWETQQIPSLSPSQPWQRLLLRFKILRSLQAFVAVAARVFAHGAATLSP
chain 2: IWELKKDVYVVELDWYPDAPGEMVVLTCDTPEEDGITWTLDQSSEVLGSGKTLTIQVKEFGDAGQYTCHKGGEVLSHSLLLLHKKEDGIWSTDILKDQKEPKNKTFLRCEAKNYSGRFTCWWLTTISTDLTFSVKSSRGSSDPQGVTCGAATLSAERVRGDNKEYEYSVECQEDSACPAAEESLPIEVMVDAVHKLKYENYTSSFFIRDIIKPDPPKNLQLKPLKNSRQVEVSWEYPDTWSTPHSYFSLTFCVQVQGKSKREKKDRVFTDKTSATVICRKNASISVRAQDRYYSSSWSEWASVPCS
chain 3: GITNINCSGHIWVEPATIFKMGMNISIYCQAAIKNCQPRKLHFYKNGIKERFQITRINKTTARLWYKNFLEPHASMYCTAECPKHFQETLICGKDISSGYPPDIPDEVTCVIYEYSGNMTCTWNAGKLTYIDTKYVVHVKSLETEEEQQYLTSSYINISTDSLQGGKKYLVWVQAANALGMEESKQLQIHLDDIVIPSAAVISRAETINATVPKTIIYWDSQTTIEKVSCEMRYKATTNQTWNVKEFDTNFTYVQQSEFYLEPNIKYVFQVRCQETGKRYWQPWSSLFFHKTPE
Take B2: in [2], the dissociation constant (Kd) was found to be 25 nM.

B3: human IL-23p19, the helical subunit of IL-23 (natural protein, UniProt Q9NPF7 20-189, looked up)
chain: RAVPGGSSPAWTQCQQLSQKLCTLAWSAHPLVGHMDLREEGDEETTNDVPHIQCGDGCDPQGLRDNSQFCLQRIHQGLIFYEKLLGSDIFTGEPSLLPDSPVGQLHASLLGLSQLLQPEGHHWETQQIPSLSPSQPWQRLLLRFKILRSLQAFVAVAARVFAHGAATLSP
Take B3: the binding result in [3] and in [4] was “binds” in each case.

For B4, in experiment [5], the binding result is “binds”.

B5: Nanobody 37D5 (single domain VHH camelid antibody against human IL-23) (VHH)
VHH: EVQLVESGGGLVQPGGSLRLSCAASGFTLDYLAIGWFRQAPGKEREGVSCVSSSGQYTYYADSVKGRFTISRDNAESTVYLQMNSLKPEDTAVYYCATDPECYRVRGYYNGEYDYWGQGTQVTVSS
Turning to B5, in experiment [6], the binding result is “binds”.

B6: Fab fragment of briakinumab (ABT-874) (Fab, V domains shown)
VH: QVQLVESGGGVVQPGRSLRLSCAASGFTFSSYGMHWVRQAPGKGLEWVAFIRYDGSNKYYADSVKGRFTISRDNSKNTLYLQMNSLRAEDTAVYYCKTHGSHDNWGQGTMVTVSS
VL: QSVLTQPPSVSGAPGQRVTISCSGSRSNIGSNTVKWYQQLPGTAPKLLIYYNDQRPSGVPDRFSGSKSGTSASLAITGLQAEDEADYYCQSYDRYTHPALLFGTGTKVTVL
On to B6, for which the binding result in experiment [7] and in experiment [8] was “binds” throughout.

B7: Nanobody 124C4 (single domain VHH camelid antibody against human IL-23) (VHH)
VHH: EVQLVESGGGLVQPGGSLRLSCAASGFTLDDYAIAWFRQAPGKEREGVSGIDSGDGSAYYADSVKGRFTISSDNAKNTVYLQMNSLRPEDTAVYYCARVRTGWGLNAPDYAMDYWGKGTLVTVSS
In the case of B7, the binding result in experiment [6] is reported as “binds”.

B8: Nanobody 22E11 (single domain VHH camelid antibody against human IL-23) (VHH)
VHH: EVQLVESGGGLVQAGGSLRLSCAASGRTFSWSAVGWFRQAPGKEREFVAAIRWSGGSPYYADSVKDRFTISRDNAKNTVYLQMNSLRPEDTAVYLCGETSLFPTSRGSHYDTWGQGTQVTVSS
With B8, the binding result in experiment [9] and in experiment [10] was “binds” each time.

B9: Fab fragment of ustekinumab (Fab, V domains shown)
VH: EVQLVQSGAEVKKPGESLKISCKGSGYSFTTYWLGWVRQMPGKGLDWIGIMSPVDSDIRYSPSFQGQVTMSVDKSITTAYLQWNSLKASDTAMYYCARRRPGQGYFDFWGQGTLVTVSS
VL: DIQMTQSPSSLSASVGDRVTITCRASQGISSWLAWYQQKPEKAPKSLIYAASSLQSGVPSRFSGSGSGTDFTLTISSLQPEDFATYYCQQYNIYPYTFGQGTKLEIK
As for B9, the binding result in experiment [6] is “binds”.

The record behind these values is publication PMC5773378 (Immunity, 2017).
